From patent publication US8603949B2, “Libraries of optimized cytochrome P450 enzymes and the optimized P450 enzymes” (California Institute of Technology, priority 2003, dated 2013)

Assay: Library plate screen, activity on 12-pNCA
Format: biochemical
Conditions: seven-crossover library, cell lysate
Description: These library plates were replicated and grown in 96 deep-well plates in 900 μL of LB media with 100 μg/ml ampicillin overnight at 30° C. and 250 rpm. 150 μL of this was then transferred to 850 μL of induction media (TB-media with final concentrations of 100 μg/ml ampicillin, 25 μg/ml thiamine, 0.5 mM δ-aminolevulinic acid and 0.6 mM IPTG). These were grown for 20-24 hours at 25° C. and 190 rpm, harvested by centrifugation at 5000×g for 8 minutes and frozen at −20° C. for at least 24 hours. Cells were resuspended using a pipetting robot (Multimek 96, Beckman) and lysed in 400 μL of Epps or Tris buffer (100 mM, pH 8.2) containing 0.8 mg/ml lysozyme and 2 units/mL DNaseI for 1 hour at 37° C. Plates were then spun for 8 minutes at 5000×g and 4° C. to pellet cell debris. 80 μL of lysate was transferred into 4 separate 96 well plates for each library plate. […] On one plate, high -throughput carbon monoxide spectroscopy was done in order to assess relative amounts of P450 (Otey, C. R. High-throughput carbon monoxide binding assay for cytochromes P450. In Directed Enzyme Evolution: Screening and Selection Methods, F. H. Arnold and G. Georgiou, eds. (Totowa, N.J.: Humana Press) pp. 137-139 (2003)) with 0.1 M sodium hydrosulfite being used in place of 0.4 M. The other three plates were used to assay activity on different substrates. […]

B1: Chimera F3791: chimera of the CYP102A1/A2/A3 seven-crossover library (protein)
chain: KETSPIPQPKTFGPLGNLPLIDKDKPTLSLIKLAEEQGPIFQIHTPAGTTIVVSGHELVKEVCDESRFDKNLSQALKFVRDFAGDGLATSWTHEKNWKKAHNILLPSFSQQAMKGYHAMMVDIAVQLIQKWARLNPNEAVDVPGDMTRLTLDTIGLCGFNYRFNSYYRDSQHPFITSMLRALKEAMNQSKRLGLQDKMMVKTKLQFQKDIEVMNSLVDKIIADRKASGEQSDDLLTHMLNGKDPETGEPLDDENIRYQIITFLIAGHETTSGLLSFATYFLLKHPDKLKKAYEEVDRVLTDAAPTYKQVLELTYIRMILNESLRLWPTAPAFSLYAKEDTVLGGEYPISKGQPVTVLIPKLHRDQNAWGPDAEDFRPERFEDPSSIPHHAYKPFGNGQRACIGMQFALQEATMVLGLVLKHFELINHTGYELKIKEALTIKPDDFKITVKPRKTAAINVQRKEQA
modifications: Chimeric Cytochrome P450 heme group polypeptide sequence from CYP102A1 (Bacillus megaterium); CYP102A2 (Bacillus subtilis) and CYP102A3 (Bacillus subtilis)
notes: chimera of the CYP102A1/A2/A3 seven-crossover library
  activity for 12-pNCA compared to parent P450s: superior activity
